Measured values taken from US9096871B2, “Variant CBH I polypeptides with reduced product inhibition” (BP Corporation North America Inc., priority 2010, dated 2015).

B1: R268A/R411A: T. reesei CBH I (SEQ ID NO:2) with R268A and R411A substitutions (protein, listed as Trichoderma reesei)
chain: MYRKLAVISAFLATARAQSACTLQSETHPPLTWQKCSSGGTCTQQTGSVVIDANWRWTHATNSSTNCYDGNTWSSTLCPDNETCAKNCCLDGAAYASTYGVTTSGNSLSIGFVTQSAQKNVGARLYLMASDTTYQEFTLLGNEFSFDVDVSQLPCGLNGALYFVSMDADGGVSKYPTNTAGAKYGTGYCDSQCPRDLKFINGQANVEGWEPSSNNANTGIGGHGSCCSEMDIWEANSISEALTPHPCTTVGQEICEGDGCGGTYSDNAYGGTCDPDGCDWNPYRLGNTSFYGPGSSFTLDTTKKLTVVTQFETSGAINRYYVQNGVTFQQPNAELGSYSGNELNDDYCTAEEAEFGGSSFSDKGGLTQFKKATSGGMVLVMSLWDDYYANMLWLDSTYPTNETSSTPGAVAGSCSTSSGVPAQVESQSPNAKVTFSNIKFGPIGSTGNPSGGNPPGGNPPGTTTTRRPATTTGSSPGPTQSHYGQCGGIGYSGPTVCASGTTCQVLNPYYSQCL
B2: R268K/R411A: T. reesei CBH I (SEQ ID NO:2) with R268K and R411A substitutions (protein, listed as Trichoderma reesei)
chain: MYRKLAVISAFLATARAQSACTLQSETHPPLTWQKCSSGGTCTQQTGSVVIDANWRWTHATNSSTNCYDGNTWSSTLCPDNETCAKNCCLDGAAYASTYGVTTSGNSLSIGFVTQSAQKNVGARLYLMASDTTYQEFTLLGNEFSFDVDVSQLPCGLNGALYFVSMDADGGVSKYPTNTAGAKYGTGYCDSQCPRDLKFINGQANVEGWEPSSNNANTGIGGHGSCCSEMDIWEANSISEALTPHPCTTVGQEICEGDGCGGTYSDNKYGGTCDPDGCDWNPYRLGNTSFYGPGSSFTLDTTKKLTVVTQFETSGAINRYYVQNGVTFQQPNAELGSYSGNELNDDYCTAEEAEFGGSSFSDKGGLTQFKKATSGGMVLVMSLWDDYYANMLWLDSTYPTNETSSTPGAVAGSCSTSSGVPAQVESQSPNAKVTFSNIKFGPIGSTGNPSGGNPPGGNPPGTTTTRRPATTTGSSPGPTQSHYGQCGGIGYSGPTVCASGTTCQVLNPYYSQCL
B3: R411A: T. reesei CBH I (SEQ ID NO:2) with R411A substitution (protein, listed as Trichoderma reesei)
chain: MYRKLAVISAFLATARAQSACTLQSETHPPLTWQKCSSGGTCTQQTGSVVIDANWRWTHATNSSTNCYDGNTWSSTLCPDNETCAKNCCLDGAAYASTYGVTTSGNSLSIGFVTQSAQKNVGARLYLMASDTTYQEFTLLGNEFSFDVDVSQLPCGLNGALYFVSMDADGGVSKYPTNTAGAKYGTGYCDSQCPRDLKFINGQANVEGWEPSSNNANTGIGGHGSCCSEMDIWEANSISEALTPHPCTTVGQEICEGDGCGGTYSDNRYGGTCDPDGCDWNPYRLGNTSFYGPGSSFTLDTTKKLTVVTQFETSGAINRYYVQNGVTFQQPNAELGSYSGNELNDDYCTAEEAEFGGSSFSDKGGLTQFKKATSGGMVLVMSLWDDYYANMLWLDSTYPTNETSSTPGAVAGSCSTSSGVPAQVESQSPNAKVTFSNIKFGPIGSTGNPSGGNPPGGNPPGTTTTRRPATTTGSSPGPTQSHYGQCGGIGYSGPTVCASGTTCQVLNPYYSQCL
B4: R268A: T. reesei CBH I (SEQ ID NO:2) with R268A substitution (protein, listed as Trichoderma reesei)
chain: MYRKLAVISAFLATARAQSACTLQSETHPPLTWQKCSSGGTCTQQTGSVVIDANWRWTHATNSSTNCYDGNTWSSTLCPDNETCAKNCCLDGAAYASTYGVTTSGNSLSIGFVTQSAQKNVGARLYLMASDTTYQEFTLLGNEFSFDVDVSQLPCGLNGALYFVSMDADGGVSKYPTNTAGAKYGTGYCDSQCPRDLKFINGQANVEGWEPSSNNANTGIGGHGSCCSEMDIWEANSISEALTPHPCTTVGQEICEGDGCGGTYSDNAYGGTCDPDGCDWNPYRLGNTSFYGPGSSFTLDTTKKLTVVTQFETSGAINRYYVQNGVTFQQPNAELGSYSGNELNDDYCTAEEAEFGGSSFSDKGGLTQFKKATSGGMVLVMSLWDDYYANMLWLDSTYPTNETSSTPGAVRGSCSTSSGVPAQVESQSPNAKVTFSNIKFGPIGSTGNPSGGNPPGGNPPGTTTTRRPATTTGSSPGPTQSHYGQCGGIGYSGPTVCASGTTCQVLNPYYSQCL
B5: R268A/R411K: T. reesei CBH I (SEQ ID NO:2) with R268A and R411K substitutions (protein, listed as Trichoderma reesei)
chain: MYRKLAVISAFLATARAQSACTLQSETHPPLTWQKCSSGGTCTQQTGSVVIDANWRWTHATNSSTNCYDGNTWSSTLCPDNETCAKNCCLDGAAYASTYGVTTSGNSLSIGFVTQSAQKNVGARLYLMASDTTYQEFTLLGNEFSFDVDVSQLPCGLNGALYFVSMDADGGVSKYPTNTAGAKYGTGYCDSQCPRDLKFINGQANVEGWEPSSNNANTGIGGHGSCCSEMDIWEANSISEALTPHPCTTVGQEICEGDGCGGTYSDNAYGGTCDPDGCDWNPYRLGNTSFYGPGSSFTLDTTKKLTVVTQFETSGAINRYYVQNGVTFQQPNAELGSYSGNELNDDYCTAEEAEFGGSSFSDKGGLTQFKKATSGGMVLVMSLWDDYYANMLWLDSTYPTNETSSTPGAVKGSCSTSSGVPAQVESQSPNAKVTFSNIKFGPIGSTGNPSGGNPPGGNPPGTTTTRRPATTTGSSPGPTQSHYGQCGGIGYSGPTVCASGTTCQVLNPYYSQCL
B6: R268K/R411K: T. reesei CBH I (SEQ ID NO:2) with R268K and R411K substitutions (protein, listed as Trichoderma reesei)
chain: MYRKLAVISAFLATARAQSACTLQSETHPPLTWQKCSSGGTCTQQTGSVVIDANWRWTHATNSSTNCYDGNTWSSTLCPDNETCAKNCCLDGAAYASTYGVTTSGNSLSIGFVTQSAQKNVGARLYLMASDTTYQEFTLLGNEFSFDVDVSQLPCGLNGALYFVSMDADGGVSKYPTNTAGAKYGTGYCDSQCPRDLKFINGQANVEGWEPSSNNANTGIGGHGSCCSEMDIWEANSISEALTPHPCTTVGQEICEGDGCGGTYSDNKYGGTCDPDGCDWNPYRLGNTSFYGPGSSFTLDTTKKLTVVTQFETSGAINRYYVQNGVTFQQPNAELGSYSGNELNDDYCTAEEAEFGGSSFSDKGGLTQFKKATSGGMVLVMSLWDDYYANMLWLDSTYPTNETSSTPGAVKGSCSTSSGVPAQVESQSPNAKVTFSNIKFGPIGSTGNPSGGNPPGGNPPGTTTTRRPATTTGSSPGPTQSHYGQCGGIGYSGPTVCASGTTCQVLNPYYSQCL
B7: R411K: T. reesei CBH I (SEQ ID NO:2) with R411K substitution (protein, listed as Trichoderma reesei)
chain: MYRKLAVISAFLATARAQSACTLQSETHPPLTWQKCSSGGTCTQQTGSVVIDANWRWTHATNSSTNCYDGNTWSSTLCPDNETCAKNCCLDGAAYASTYGVTTSGNSLSIGFVTQSAQKNVGARLYLMASDTTYQEFTLLGNEFSFDVDVSQLPCGLNGALYFVSMDADGGVSKYPTNTAGAKYGTGYCDSQCPRDLKFINGQANVEGWEPSSNNANTGIGGHGSCCSEMDIWEANSISEALTPHPCTTVGQEICEGDGCGGTYSDNRYGGTCDPDGCDWNPYRLGNTSFYGPGSSFTLDTTKKLTVVTQFETSGAINRYYVQNGVTFQQPNAELGSYSGNELNDDYCTAEEAEFGGSSFSDKGGLTQFKKATSGGMVLVMSLWDDYYANMLWLDSTYPTNETSSTPGAVKGSCSTSSGVPAQVESQSPNAKVTFSNIKFGPIGSTGNPSGGNPPGGNPPGTTTTRRPATTTGSSPGPTQSHYGQCGGIGYSGPTVCASGTTCQVLNPYYSQCL
B8: R268K: T. reesei CBH I (SEQ ID NO:2) with R268K substitution (protein, listed as Trichoderma reesei)
chain: MYRKLAVISAFLATARAQSACTLQSETHPPLTWQKCSSGGTCTQQTGSVVIDANWRWTHATNSSTNCYDGNTWSSTLCPDNETCAKNCCLDGAAYASTYGVTTSGNSLSIGFVTQSAQKNVGARLYLMASDTTYQEFTLLGNEFSFDVDVSQLPCGLNGALYFVSMDADGGVSKYPTNTAGAKYGTGYCDSQCPRDLKFINGQANVEGWEPSSNNANTGIGGHGSCCSEMDIWEANSISEALTPHPCTTVGQEICEGDGCGGTYSDNKYGGTCDPDGCDWNPYRLGNTSFYGPGSSFTLDTTKKLTVVTQFETSGAINRYYVQNGVTFQQPNAELGSYSGNELNDDYCTAEEAEFGGSSFSDKGGLTQFKKATSGGMVLVMSLWDDYYANMLWLDSTYPTNETSSTPGAVRGSCSTSSGVPAQVESQSPNAKVTFSNIKFGPIGSTGNPSGGNPPGGNPPGTTTTRRPATTTGSSPGPTQSHYGQCGGIGYSGPTVCASGTTCQVLNPYYSQCL

assay: Bagasse assay in the absence and presence of β-glucosidase (BG); assay type: biochemical; conditions: variants of T. reesei CBH I; [(Activity without BG)/(Activity with BG)]*100; conversion of glucan after 72 hours
Protocol: Bagasse Assay: This assay measures the activity of CBH I on bagasse, a lignocellulosic substrate. Reactions were run in 10 ml vials with 5% dilute acid pretreated bagasse (250 mg solids per 5 ml reaction). Each reaction contained 4 mg CBH I enzyme/g solids, 200 mM MES pH 6, kanamycin, and chloramphenicol. Reactions were incubated at 35° C. in hybridization incubators (Robbins Scientific), rotating at 20 RPM. Time points were taken by transferring a sample of homogenous slurry (150 μl) into a 96-well deep well plate and quenching the reaction with stop buffer (450 μl of 500 mM sodium carbonate, pH 10). Time point measurements were taken every 24 hours for 72 hours.
Cellobiose Tolerance Assays (or Cellobiose Inhibition Assays): Tolerance to cellobiose (or inhibition caused by cellobiose) was tested in two ways in the CBH I assays. A direct-dose tolerance method can be applied to all of the CBH I assays (i.e., 4-MUL, PASC, and/or bagasse assays), and entails the exogenous addition of a known amount of cellobiose into assay mixtures. A different indirect method entails the addition of an excess amount of β-glucosidase (BG) to PASC and bagasse assays (typically, 1 mg β-glucosidase/g solids loaded). BG will enzymatically hydrolyze the cellobiose generated during these assays; therefore, CBH I activity in the presence of BG can be taken as a measure of activity in the absence of cellobiose. Furthermore, when activity in the presence and absence of BG are similar, this indicates tolerance to cellobiose. […]
FIGS. 4 and 5 show bar graph data for the bagasse assay of wild type T. reesei CBH I vs. the variants. In FIG. 4, bars represent relative activity, normalized to wild type activity in the absence of cellobiose (WT+BG=1). In FIG. 5, bars represent tolerance to cellobiose, as represented by the ratio of activity in the presence of accumulating cellobiose (−BG) to that of activity in the absence of cellobiose (+BG); ratios close to 1 indicate greater tolerance to cellobiose.

Point of comparison: B8, “Tolerance to cellobiose accumulation % Activity in Bagasse Assay (−/+BG)” value 92%. Against it:
- B1 — higher, 95%
- B2 — higher, 102%
- B3 — higher, 94%
- B4 — lower, 86%
- B5 — higher, 94%
- B6 — higher, 94%
- B7 — lower, 89%
